# Measurements published in patent US20250042984A1.
# Columns and labels:
# [1] = target: VEGF-B (extracellular domain) (UniProt P49765); assay: potency ELISA, VEGF-B coated plate; 160 mg/mL formulation in glass vials, 1 month at 5 C
# [2] = target: VEGF-B (extracellular domain) (UniProt P49765); assay: potency ELISA, VEGF-B coated plate; 160 mg/mL formulation in glass vials, 3 months at 5 C
# [3] = target: VEGF-B (extracellular domain) (UniProt P49765); assay: potency ELISA, VEGF-B coated plate; 160 mg/mL formulation in glass vials, 6 months at 5 C
# [4] = target: VEGF-B (extracellular domain) (UniProt P49765); assay: potency ELISA, VEGF-B coated plate; 160 mg/mL formulation in glass vials, 9 months at 5 C
# [5] = target: VEGF-B (extracellular domain) (UniProt P49765); assay: potency ELISA, VEGF-B coated plate; 160 mg/mL formulation in glass vials, 1 month at 25 C
# [6] = target: VEGF-B (extracellular domain) (UniProt P49765); assay: potency ELISA, VEGF-B coated plate; 160 mg/mL formulation in glass vials, 1 month at 35 C
# [7] = target: VEGF-B (extracellular domain) (UniProt P49765); assay: potency ELISA, VEGF-B coated plate; 160 mg/mL formulation in glass vials, 12 months at 5 C
# [8] = target: VEGF-B (extracellular domain) (UniProt P49765); assay: potency ELISA, VEGF-B coated plate; 160 mg/mL formulation in glass vials, 3 months at 25 C
# [9] = target: VEGF-B (extracellular domain) (UniProt P49765); assay: potency ELISA, VEGF-B coated plate; 160 mg/mL formulation in glass vials, 6 months at 25 C
# [10] = target: VEGF-B (extracellular domain) (UniProt P49765); assay: potency ELISA, VEGF-B coated plate; 160 mg/mL formulation in glass vials, 9 months at 25 C
# [11] = target: VEGF-B (extracellular domain) (UniProt P49765); assay: potency ELISA, VEGF-B coated plate; 160 mg/mL formulation in glass vials, 3 months at 35 C
# [12] = target: VEGF-B (extracellular domain) (UniProt P49765); assay: potency ELISA, VEGF-B coated plate; 160 mg/mL formulation in glass vials, 6 months at 35 C
# [13] = target: VEGF-B (extracellular domain) (UniProt P49765); assay: potency ELISA, VEGF-B coated plate; 160 mg/mL formulation in glass vials, 9 months at 35 C
# [14] = target: VEGF-B (extracellular domain) (UniProt P49765); assay: potency ELISA, VEGF-B coated plate; 160 mg/mL formulation in glass vials, 12 months at 25 C
# [15] = target: VEGF-B (extracellular domain) (UniProt P49765); assay: potency ELISA, VEGF-B coated plate; 160 mg/mL formulation in glass vials, 12 months at 35 C
# [16] = target: VEGF-B (extracellular domain) (UniProt P49765); assay: potency ELISA, VEGF-B coated plate; 160 mg/mL formulation in glass vials, 0 months (25 C table)
# [17] = target: VEGF-B (extracellular domain) (UniProt P49765); assay: potency ELISA, VEGF-B coated plate; 160 mg/mL formulation in glass vials, 0 months (35 C table)
# [18] = target: VEGF-B (extracellular domain) (UniProt P49765); assay: potency ELISA, VEGF-B coated plate, HRP detection, 4PL and parallel line analysis; 160 mg/mL formulation in glass vials, 0 months (5 C table)
# Sequence of UniProt P49765 (P49765 22-207): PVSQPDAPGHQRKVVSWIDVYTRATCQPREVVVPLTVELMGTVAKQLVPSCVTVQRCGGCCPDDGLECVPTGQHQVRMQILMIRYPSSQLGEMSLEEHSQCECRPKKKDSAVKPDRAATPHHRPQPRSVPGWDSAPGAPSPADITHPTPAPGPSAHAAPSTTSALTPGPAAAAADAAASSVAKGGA
substance,measurement,setting,value
anti-VEGFB antibody (CSL346),Surrogate potency for VEGF-B binding by ELISA (relative to CSL346 reference standard) (% relative to reference standard),[1],109
same,Surrogate potency for VEGF-B binding by ELISA (relative to CSL346 reference standard) (% relative to reference standard),[2],96
same,Surrogate potency for VEGF-B binding by ELISA (relative to CSL346 reference standard) (% relative to reference standard),[3],101
same,Surrogate potency for VEGF-B binding by ELISA (relative to CSL346 reference standard) (% relative to reference standard),[4],109
same,Surrogate potency for VEGF-B binding by ELISA (relative to CSL346 reference standard) (% relative to reference standard),[5],107
same,Surrogate potency for VEGF-B binding by ELISA (relative to CSL346 reference standard) (% relative to reference standard),[6],115
same,Surrogate potency for VEGF-B binding by ELISA (relative to CSL346 reference standard) (% relative to reference standard),[7],110
same,Surrogate potency for VEGF-B binding by ELISA (relative to CSL346 reference standard) (% relative to reference standard),[8],113
same,Surrogate potency for VEGF-B binding by ELISA (relative to CSL346 reference standard) (% relative to reference standard),[9],95
same,Surrogate potency for VEGF-B binding by ELISA (relative to CSL346 reference standard) (% relative to reference standard),[10],101
same,Surrogate potency for VEGF-B binding by ELISA (relative to CSL346 reference standard) (% relative to reference standard),[11],92
same,Surrogate potency for VEGF-B binding by ELISA (relative to CSL346 reference standard) (% relative to reference standard),[12],95
same,Surrogate potency for VEGF-B binding by ELISA (relative to CSL346 reference standard) (% relative to reference standard),[13],98
same,Surrogate potency for VEGF-B binding by ELISA (relative to CSL346 reference standard) (% relative to reference standard),[14],136
same,Surrogate potency for VEGF-B binding by ELISA (relative to CSL346 reference standard) (% relative to reference standard),[15],106
same,Surrogate potency for VEGF-B binding by ELISA (relative to CSL346 reference standard) (% relative to reference standard),[16],105
same,Surrogate potency for VEGF-B binding by ELISA (relative to CSL346 reference standard) (% relative to reference standard),[17],105
same,Surrogate potency for VEGF-B binding by ELISA (relative to CSL346 reference standard) (% relative to reference standard),[18],105
